US20120040896

How the values were obtained:
[1] = tested on: GST-BRCA1 fusion protein S694/T696 (nucleotides 1926-2538)
[2] = tested on: GST-BRCA1 fusion protein with a T509A mutation (A509, nucleotides 1323-1886)
[3] = tested on: GST-BRCA1 fusion protein wild-type T509+S694 (nucleotides 1323-2538)
[4] = tested on: GST-BRCA1 fusion protein T1246 (nucleotides 3714-4310)
[5] = tested on: GST-BRCA1 fusion protein E509+S694 (phospho-mimic T509E mutant, nucleotides 1323-2538)
[6] = tested on: GST-BRCA1 fusion protein A509+S694 (T509A mutant, nucleotides 1323-2538)
[7] = tested on: GST-BRCA1 fusion protein T509 (nucleotides 1323-1886)
[8] = tested on: purified full length BRCA1 protein (ProteinOne)

Sequence of GST-BRCA1 fusion protein T1246 (nucleotides 3714-4310) (chain, as listed by the source): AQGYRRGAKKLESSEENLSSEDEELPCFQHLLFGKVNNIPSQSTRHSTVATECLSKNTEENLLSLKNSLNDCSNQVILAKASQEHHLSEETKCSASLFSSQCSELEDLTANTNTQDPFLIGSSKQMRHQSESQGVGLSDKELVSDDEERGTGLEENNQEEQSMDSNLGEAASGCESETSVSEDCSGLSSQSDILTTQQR
Sequence of GST-BRCA1 fusion protein T509 (nucleotides 1323-1886) (chain, as listed by the source): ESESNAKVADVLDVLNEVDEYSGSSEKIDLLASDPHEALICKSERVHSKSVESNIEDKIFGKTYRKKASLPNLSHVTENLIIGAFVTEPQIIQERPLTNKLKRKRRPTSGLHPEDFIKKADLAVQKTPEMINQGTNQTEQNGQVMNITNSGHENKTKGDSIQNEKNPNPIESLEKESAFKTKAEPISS
Sequence of GST-BRCA1 fusion protein S694/T696 (nucleotides 1926-2538) (chain, as listed by the source): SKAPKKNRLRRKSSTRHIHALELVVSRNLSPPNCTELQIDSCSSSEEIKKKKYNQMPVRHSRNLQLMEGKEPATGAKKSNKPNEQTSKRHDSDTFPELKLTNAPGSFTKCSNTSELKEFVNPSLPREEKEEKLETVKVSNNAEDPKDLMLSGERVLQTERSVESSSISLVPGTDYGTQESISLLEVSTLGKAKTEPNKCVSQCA
Sequence of GST-BRCA1 fusion protein wild-type T509+S694 (nucleotides 1323-2538) (chain, as listed by the source): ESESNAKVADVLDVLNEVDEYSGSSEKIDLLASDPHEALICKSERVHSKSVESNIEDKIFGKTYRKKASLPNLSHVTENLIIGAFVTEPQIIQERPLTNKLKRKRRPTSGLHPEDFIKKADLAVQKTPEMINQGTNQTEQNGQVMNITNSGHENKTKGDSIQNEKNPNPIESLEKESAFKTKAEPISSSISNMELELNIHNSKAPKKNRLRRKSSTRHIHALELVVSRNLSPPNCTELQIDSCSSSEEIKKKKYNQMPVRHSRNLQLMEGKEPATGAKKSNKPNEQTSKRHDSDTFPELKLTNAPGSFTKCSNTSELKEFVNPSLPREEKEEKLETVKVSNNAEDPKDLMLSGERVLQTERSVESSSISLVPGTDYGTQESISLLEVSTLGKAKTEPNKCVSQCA

purified active Akt1
in vitro Akt kinase assay (phosphorylation) [1]: both the T509 and S694/T696 constructs were strongly phosphorylated
in vitro Akt kinase assay (phosphorylation) [2]: A fusion protein with a T509A mutation was not phosphorylated
in vitro Akt kinase assay (phosphorylation signal) [3]: the signal obtained with the wild-type T509+S694 construct
in vitro Akt kinase assay (phosphorylation) [4]: T1246 did not appear to be phosphorylated
in vitro Akt kinase assay (phosphorylation signal) [5]: equally phosphorylated by Akt, with the intensity of these signals approximately equal to one half of the signal obtained with the wild-type T509+S694 construct
in vitro Akt kinase assay (phosphorylation signal) [6]: equally phosphorylated by Akt, with the intensity of these signals approximately equal to one half of the signal obtained with the wild-type T509+S694 construct
in vitro Akt kinase assay (phosphorylation) [7]: both the T509 and S694/T696 constructs were strongly phosphorylated
in vitro kinase reaction (phosphorylation) [8]: full length BRCA1 is phosphorylated by Akt in vitro
